The subject of data set [1] is HeLa Kyoto. Put plainly: solubility in G1/S (NP-40 vs SDS abundance) (log2 ratio); higher = more soluble. The settings on record: cell cycle stage: G1/S.
Data set [2] deals with HeLa Kyoto. Put plainly: thermal stability score vs G1/S (z-score of summed log2 fold changes over temperatures); higher = more thermally stable than in G1/S.
In data set [3] the test system is HeLa Kyoto. Put plainly: solubility change mitosis vs G1/S (difference of NP-40 vs SDS log2 ratios) (log2 ratio difference); higher = more soluble in mitosis.
Data set [4] has as its system HeLa Kyoto. Put plainly: melting temperature (median over replicates), in situ; higher = more thermally stable.
[5] abbreviates: cell cycle stage: early G1 (4.5 h after nocodazole release).
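Throughout, for melting temperature (median over replicates), in situ: HeLa Kyoto cells synchronized by double thymidine or nocodazole block, proteins quantified by TMT10plex mass spectrometry, three independent biological replicates.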
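Throughout, for solubility change mitosis vs G1/S (difference of NP-40 vs SDS log2 ratios): synchronized HeLa Kyoto cells (double thymidine block for G1/S, nocodazole release for mitosis), protein amounts in NP-40 versus SDS lysates quantified by mass spectrometry, three biological replicates.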
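Throughout, for solubility in G1/S (NP-40 vs SDS abundance): HeLa Kyoto cells arrested at G1/S by double thymidine block, proteins quantified by TMT10plex mass spectrometry in mild NP-40 versus SDS extracts, three biological replicates.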
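Throughout, for thermal stability score vs G1/S (z-score of summed log2 fold changes over temperatures): synchronized HeLa Kyoto cells, proteins quantified by TMT10plex mass spectrometry, three biological replicates, mitosis taken 0.5 h after nocodazole release, G1/S directly after double thymidine block.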

In the case of “MASPQLCRALVSAQWVAEALRAPRAGQPLQLLDASWYLPKLGRDARREFEERHIPGAAFFDIDQCSDRTSPYDHMLPGAEHFAEYAGRLGVGAATHVVIYDASDQGLYSAPRVWWMFRAFGHHAVSLLDGGLRHWLRQNLPLSSGKSQPAPAEFRAQLDPAFIKTYEDIKENLESRRFQVVDSRATGRFRGTEPEPRDGIEPGHIPGTVNIPFTDFLSQEGLEKSPEEIRHLFQEKKVDLSKPLVATCGSGVTACHVALGAYLCGKPDVPIYDGSWVEWYMRARPEDVISEGRGKTH [MPST]”, in the data set on HeLa Kyoto [1], the “solubility in G1/S (log2)” value was found to be 0.45. Further, the thermal stability score in the data set on HeLa Kyoto [2] (setting [5]) is 3.35; in the data set on HeLa Kyoto [2] (cell cycle stage: mitosis), 0.97. In addition, the “solubility change mitosis (log2)” value with HeLa Kyoto [3] was -0.0783. The figures for the melting temperature in the data set with HeLa Kyoto [4] (cell cycle stage: G1/S) and in the data set with HeLa Kyoto [4] (cell cycle stage: mitosis) were 50.1 °C and 50.5 °C, respectively.

Turning to “MASQLQNRLRSALALVTGAGSGIGRAVSVRLAGEGATVAACDLDRAAAQETVRLLGGPGSKEGPPRGNHAAFQADVSEARAARCLLEQVQACFSRPPSVVVSCAGITQDEFLLHMSEDDWDKVIAVNLKGTFLVTQAAAQALVSNGCRGSIINISSIVGKVGNVGQTNYAASKAGVIGLTQTAARELGRHGIRCNSVLPGFIATPMTQKVPQKVVDKITEMIPMGHLGDPEDVADVVAFLASEDSGYITGTSVEVTGGLFM [HSD17B8]”, the “solubility in G1/S (log2)” value with HeLa Kyoto [1] turned out to be 0.368. The thermal stability score with HeLa Kyoto [2] (setting [5]) is -0.337; in the data set with HeLa Kyoto [2] (cell cycle stage: mitosis), -1.5. Besides, in the data set on HeLa Kyoto [3], the “solubility change mitosis (log2)” value is 0.119. The melting temperature came to 55.3 °C in the data set on HeLa Kyoto [4] (cell cycle stage: G1/S) and 56.3 °C in the data set on HeLa Kyoto [4] (cell cycle stage: mitosis).

Turning to “MASRCWRWWGWSAWPRTRLPPAGSTPSFCHHFSTQEKTPQICVVGSGPAGFYTAQHLLKHPQAHVDIYEKQPVPFGLVRFGVAPDHPEVKNVINTFTQTAHSGRCAFWGNVEVGRDVTVPELREAYHAVVLSYGAEDHRALEIPGEELPGVCSARAFVGWYNGLPENQELEPDLSCDTAVILGQGNVALDVARILLTPPEHLERTDITKAALGVLRQSRVKTVWLVGRRGPLQVAFTIKELREMIQLPGARPILDPVDFLGLQDKIKEVPRPRKRLTELLLRTATEKPGPAEAARQASASRAWGLRFFRSPQQVLPSPDGRRAAGVRLAVTRLEGVDEATRAVPTGDMEDLPCGLVLSSIGYKSRPVDPSVPFDSKLGVIPNVEGRVMDVPGLYCSGWVKRGPTGVIATTMTDSFLTGQMLLQDLKAGLLPSGPRPGYAAIQALLSSRGVRPVSFSDWEKLDAEEVARGQGTGKPREKLVDPQEMLRLLGH [FDXR]”, the “solubility in G1/S (log2)” value in the data set on HeLa Kyoto [1] turned out to be 0.349. Further, the thermal stability score turned out to be 0.0282 in the data set with HeLa Kyoto [2] (setting [5]) and 0.706 in the data set with HeLa Kyoto [2] (cell cycle stage: mitosis). Further, the “solubility change mitosis (log2)” value with HeLa Kyoto [3] is -0.0461. Also, the results for the melting temperature with HeLa Kyoto [4] (cell cycle stage: G1/S) and in the data set on HeLa Kyoto [4] (cell cycle stage: mitosis) were 51.7 °C and 51.8 °C, respectively.

As for “MASRGRRPEHGGPPELFYDETEARKYVRNSRMIDIQTRMAGRALELLYLPENKPCYLLDIGCGTGLSGSYLSDEGHYWVGLDISPAMLDEAVDREIEGDLLLGDMGQGIPFKPGTFDGCISISAVQWLCNANKKSENPAKRLYCFFASLFSVLVRGSRAVLQLYPENSEQLELITTQATKAGFSGGMVVDYPNSAKAKKFYLCLFSGPSTFIPEGLSENQDEVEPRESVFTNERFPLRMSRRGMVRKSRAWVLEKKERHRRQGREVRPDTQYTGRKRKPRF [WBSCR22]”, the “solubility in G1/S (log2)” value in the data set on HeLa Kyoto [1] is -0.361. The thermal stability score in the data set with HeLa Kyoto [2] (setting [5]) was determined as 1.09; in the data set on HeLa Kyoto [2] (cell cycle stage: mitosis) it was 0.578. The “solubility change mitosis (log2)” value with HeLa Kyoto [3] is 0.0973. Moreover, the melting temperature in the data set on HeLa Kyoto [4] (cell cycle stage: G1/S) and in the data set with HeLa Kyoto [4] (cell cycle stage: mitosis) was 52.9 °C throughout.

Turning to “MASSAQSGGSSGGPAVPTVQRGIIKMVLSGCAIIVRGQPRGGPPPERQINLSNIRAGNLARRAAATQPDAKDTPDEPWAFPAREFLRKKLIGKEVCFTIENKTPQGREYGMIYLGKDTNGENIAESLVAEGLATRREGMRANNPEQNRLSECEEQAKAAKKGMWSEGNGSHTIRDLKYTIENPRHFVDSHHQKPVNAIIEHVRDGSVVRALLLPDYYLVTVMLSGIKCPTFRREADGSETPEPFAAEAKFFTESRLLQRDVQIILESCHNQNILGTILHPNGNITELLLKEGFARCVDWSIAVYTRGAEKLRAAERFAKERRLRIWRDYVAPTANLDQKDKQFVAKVMQVLNADAIVVKLNSGDYKTIHLSSIRPPRLEGENTQDKNKKLRPLYDIPYMFEAREFLRKKLIGKKVNVTVDYIRPASPATETVPAFSERTCATVTIGGINIAEALVSKGLATVIRYRQDDDQRSSHYDELLAAEARAIKNGKGLHSKKEVPIHRVADISGDTQKAKQFLPFLQRAGRSEAVVEYVFSGSRLKLYLPKETCLITFLLAGIECPRGARNLPGLVQEGEPFSEEATLFTKELVLQREVEVEVESMDKAGNFIGWLHIDGANLSVLLVEHALSKVHFTAERSSYYKSLLSAEEAAKQKKEKVWAHYEEQPVEEVMPVLEEKERSASYKPVFVTEITDDLHFYVQDVETGTQLEKLMENMRNDIASHPPVEGSYAPRRGEFCIAKFVDGEWYRARVEKVESPAKIHVFYIDYGNREVLPSTRLGTLSPAFSTRVLPAQATEYAFAFIQVPQDDDARTDAVDSVVRDIQNTQCLLNVEHLSAGCPHVTLQFADSKGDVGLGLVKEGLVMVEVRKEKQFQKVITEYLNAQESAKSARLNLWRYGDFRADDADEFGYSR [SND1]”, the “solubility in G1/S (log2)” value in the data set on HeLa Kyoto [1] is -0.0826. Also, the thermal stability score is 0.34 in the data set on HeLa Kyoto [2] (setting [5]) and 3.69 in the data set with HeLa Kyoto [2] (cell cycle stage: mitosis). In addition, in the data set with HeLa Kyoto [3], the “solubility change mitosis (log2)” value is 0.0116. Also, the melting temperature in the data set on HeLa Kyoto [4] (cell cycle stage: G1/S) came out at 47.9 °C; with HeLa Kyoto [4] (cell cycle stage: mitosis) it was 48.1 °C.

The values are drawn from the supplement of paper PMC5998384.
